# According to patent publication US20220363763A1 (ABL BIO, published 2022):
# T1: recombinant his-tag human LAG3-ECD protein (human, UniProt P18627 23-450)
# T1 construct: extracellular domain; not shown: his tag
# T1 sequence (looked up): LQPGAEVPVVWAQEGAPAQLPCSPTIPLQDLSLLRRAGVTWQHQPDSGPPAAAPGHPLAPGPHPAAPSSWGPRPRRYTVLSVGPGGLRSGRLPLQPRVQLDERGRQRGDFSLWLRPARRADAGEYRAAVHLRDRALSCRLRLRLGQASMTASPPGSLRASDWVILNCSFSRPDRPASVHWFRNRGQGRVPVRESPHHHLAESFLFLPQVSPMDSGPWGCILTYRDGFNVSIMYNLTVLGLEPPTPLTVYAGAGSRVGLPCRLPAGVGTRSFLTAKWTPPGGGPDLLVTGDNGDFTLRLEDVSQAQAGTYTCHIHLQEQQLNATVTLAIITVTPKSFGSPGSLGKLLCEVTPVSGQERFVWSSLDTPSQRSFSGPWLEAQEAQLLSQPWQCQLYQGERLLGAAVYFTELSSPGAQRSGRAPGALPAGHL
# T2: rat LAG3 ECD-Fc protein (rat, UniProt Q5BK54 24-442)
# T2 construct: extracellular domain; not shown: Fc part
# T2 sequence (looked up): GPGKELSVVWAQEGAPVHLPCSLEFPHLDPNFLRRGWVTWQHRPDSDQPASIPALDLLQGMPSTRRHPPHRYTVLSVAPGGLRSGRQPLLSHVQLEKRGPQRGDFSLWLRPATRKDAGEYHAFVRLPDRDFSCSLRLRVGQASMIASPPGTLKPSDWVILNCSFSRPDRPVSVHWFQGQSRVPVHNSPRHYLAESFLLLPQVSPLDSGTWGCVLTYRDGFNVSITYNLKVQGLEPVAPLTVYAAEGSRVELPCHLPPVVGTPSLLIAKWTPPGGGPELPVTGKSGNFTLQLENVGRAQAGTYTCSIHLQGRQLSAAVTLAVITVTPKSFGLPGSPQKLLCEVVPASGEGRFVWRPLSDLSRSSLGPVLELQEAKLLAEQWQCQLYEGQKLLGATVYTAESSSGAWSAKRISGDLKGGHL
# T3: recombinant human LAG-3-ECD-human IgG1 fusion protein (human, UniProt P18627 23-450, biotin-labeled in the MHC class II blocking assays)
# T3 construct: extracellular domain; also called LAG-3-huFc; LAG-3-ECD-huFc; not shown: human IgG1 Fc
# T3 sequence (looked up): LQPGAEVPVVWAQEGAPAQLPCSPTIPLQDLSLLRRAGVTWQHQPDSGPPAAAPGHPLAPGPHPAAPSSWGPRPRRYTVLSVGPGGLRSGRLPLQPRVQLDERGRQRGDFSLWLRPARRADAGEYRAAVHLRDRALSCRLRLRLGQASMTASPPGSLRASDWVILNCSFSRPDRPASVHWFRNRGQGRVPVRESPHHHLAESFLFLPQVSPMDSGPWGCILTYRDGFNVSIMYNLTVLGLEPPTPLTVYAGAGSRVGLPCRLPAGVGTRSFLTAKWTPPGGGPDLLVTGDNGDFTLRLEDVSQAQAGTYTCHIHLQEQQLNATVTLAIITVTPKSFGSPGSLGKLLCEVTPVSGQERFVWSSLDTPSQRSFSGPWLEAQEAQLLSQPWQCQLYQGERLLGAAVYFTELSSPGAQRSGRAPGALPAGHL
# T4: mouse LAG3 ECD-Fc protein (mouse, UniProt Q61790 24-442)
# T4 construct: extracellular domain; not shown: Fc part
# T4 sequence (looked up): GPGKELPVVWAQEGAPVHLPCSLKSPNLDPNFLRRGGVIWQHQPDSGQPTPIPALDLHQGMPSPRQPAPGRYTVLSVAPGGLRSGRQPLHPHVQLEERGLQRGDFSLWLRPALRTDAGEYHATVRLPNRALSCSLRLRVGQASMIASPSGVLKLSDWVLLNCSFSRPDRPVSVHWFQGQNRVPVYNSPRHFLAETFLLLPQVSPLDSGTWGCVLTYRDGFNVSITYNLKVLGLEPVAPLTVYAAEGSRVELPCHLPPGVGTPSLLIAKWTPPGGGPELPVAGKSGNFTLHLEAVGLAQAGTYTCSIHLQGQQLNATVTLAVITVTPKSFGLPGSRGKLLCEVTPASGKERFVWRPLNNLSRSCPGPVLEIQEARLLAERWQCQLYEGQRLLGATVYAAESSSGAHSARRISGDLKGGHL
# Key:
# [1] = biological target: T1, recombinant his-tag human LAG3-ECD …; assay: SPR Biacore T200, antibody captured by anti-human Fc, LAG3-ECD-his injected
# Description: The binding of the S20, S24, S27, S31, S87, S119, S120, S128, S136, S161 and T99 antibodies to recombinant his-tag human LAG3-ECD protein was examined by Biacore T200 using a capture method. Anti-LAG3 antibodies were captured using anti-human Fc antibody. The anti-human Fc antibody was coated on chip. Serial concentrations of his-tag human LAG3-ECD protein (0-4 nM) were injected over capture antibodies at the flow rate of 30 μl/min. The dissociation phase was 900 s or 550 s. The Biacore results for the anti-LAG3 antibodies have shown that these anti-LAG3 antibodies are high affinity binder to human LAG3.
# rat LAG3 ECD-Fc protein [2] = biological target: T2, rat LAG3 ECD-Fc protein; assay: ELISA on coated rat LAG3 ECD-Fc; EC50 table has no unit, x axis Ab(nM)
# Description: (§1) To evaluate the capability of the anti-LAG-3 antibodies to bind to human, rat, and mouse LAG3 the antibodies identified in Example 2.1 were evaluated for their binding property through ELISA. The human, rat and mouse LAG3 ECD-Fc protein were coated to ELISA plate at 1 μg/ml with 100 μl/well. Antibodies from Example 1 were serially diluted with ELISA diluent buffer. […] The resulting plates were washed and then labeled with anti-human IgG(Fab)-HRP antibody. The S31 can only bind to human LAG3. The S27 and T99 can bind to human LAG3 and rat/mouse LAG3 with lower potency. The S119 antibody can bind to human, rat and mouse LAG3 at high potency (FIGS. 22A-22D).
# [3] = biological target: T3, recombinant human LAG-3-ECD-human IgG1 …; assay: ELISA on coated human LAG3 ECD-Fc; EC50 table has no unit, x axis Ab(nM)
# Description: as §1
# [4] = biological target: T4, mouse LAG3 ECD-Fc protein; assay: ELISA on coated mouse LAG3 ECD-Fc; EC50 table has no unit, x axis Ab(nM)
# Description: as §1
# [5] = biological target: T3, recombinant human LAG-3-ECD-human IgG1 …; assay: flow cytometry; blocking of biotin-LAG-3-ECD-huFc binding to MHC class II on Raji cells
# Description: (§2) To evaluate the ability of anti-LAG-3 antibodies to block the binding of sLAG-3 to MHC class II receptor, an in vitro binding assay was designed using biotin-labeled LAG-3-ECD-huFc fusion proteins and Raji cells expressing MHC class II receptor. Antibodies from Example 1 were serially diluted from 20 μg/mL with FACS buffer and pre-incubated with 6 μg/mL of biotin-LAG-3-ECD-huFcc for 30 min at room temperature. The antibody mixture was then added to FcR blocked Raji cells and incubated for 30 min on ice. Cells were then washed with FACS buffer and subsequently stained with streptavidin PE for 30 min on ice and subsequently washed once with FACS buffer. Labeled cells were evaluated for fluorescence intensity by flow cytometry in a BD FACSCalibur™.
# [6] = biological target: T3, recombinant human LAG-3-ECD-human IgG1 …; assay: ELISA on coated D1-D4 huFc; EC50 table has no unit, x axis Ab(nM)
# Description: Briefly, D1-D4 huFc or ΔD1-D2 huFc was coated at 0.5 μg/ml overnight and then blocked by 5% BSA in PBS. The serially diluted antibodies (starting from 1 μg/ml and 1:3 serial dilution for 10 doses) were incubated with the coated antigen for 1 hr at room temperature. The resulting plates were washed with PBS/T and incubated with goat anti-mouse IgG-HRP for 1 h at room temperature. The plates were developed with TMB substrate and analyzed by spectrophotometer at OD 450-630 nm.
# [7] = biological target: T3, recombinant human LAG-3-ECD-human IgG1 …; assay: flow cytometry; blocking of biotin-LAG-3-ECD-huFc binding to MHC class II on Raji cells; remark: listed apart in the source
# Description: as §2, with “Antibodies from Example 1 were serially diluted from 20 μg/mL with FACS buffer and pre-incubated with 6 μg/mL of biotin-LAG-3-ECD-huFcc for 30 min at room temperature.” left out
# rat LAG3 ECD-Fc protein [8] = biological target: T2, rat LAG3 ECD-Fc protein; assay: ELISA on coated rat LAG3 ECD-Fc; EC50 table has no unit, x axis Ab(nM); fit value of a flat curve
# Description: as §1
# [9] = biological target: T4, mouse LAG3 ECD-Fc protein; assay: ELISA on coated mouse LAG3 ECD-Fc; EC50 table has no unit, x axis Ab(nM); fit value of a flat curve
# Description: as §1
# [10] = biological target: T3, recombinant human LAG-3-ECD-human IgG1 …; assay: flow cytometry; blocking of biotin-LAG-3-ECD-huFc binding to MHC class II on Raji cells; the curve ends at about 20 nM without a lower plateau
# Description: as §2
Kd [1] [nM],koff [1] [s⁻¹],kon [1] [M⁻¹ s⁻¹],EC50 (rat LAG3 ECD-Fc protein [2]) [nM],EC50 [3] [nM],EC50 [4] [nM],IC50 [5] [nM],EC50 [6] [nM],IC50 [7] [nM],EC50 (rat LAG3 ECD-Fc protein [8]) [nM],EC50 [9] [nM],IC50 [10] [nM],Binder
0.00687,0.000149,2.17e+07,0.0387,0.0321,0.0724,9.29,–,–,–,–,–,"NLAG3-HDB169-S119 (antibody, human IgG1, V domains shown, Short label tied by its unique suffix) VH: QVQLVQSGAEVKKPGSSVKVSCKASGGTFSSYAISWVRQAPGQGLEWMGGIIPIFGTANYAQKFQGRVTITADESTSTAYMELSSLRSEDTAVYYCAASTLRVPNPPYWGQGTLVTVSS VL: EIVLTQSPGTLSLSPGERATLSCRASQSVSSYLAWYQQKPGQAPRLLIYGISSRATGIPDRFSGSGSGTDFTLTISSLQPEDFATYYCQQANNFPLTFGGGTKLEIKR"
–,–,–,–,–,–,–,0.0979,21.4,–,–,–,"147H mouse monoclonal antibody (antibody, V domains shown, Mouse hybridoma antibody) VH: QVQLQQSGSELVRPGTSVKISCKASGYTFTNYWLGWIKQRPGHGLEWIGDIYPGGDYINYNEKFKGKATLSADTSSSTAYMQLSSLTSEDSAVYFCARPNLPGDYWGQGTSVTVSS VL: DIVMTQAAFSNPVTLGTSASISCRSSKSLLHSNGITYLYWYLQKPGQSPQLLIYQVSNLASGVPGRFSGSGSGTDFTLRISRVEAEDVGVYYCAQNLELPWTFGGGTKLEIK"
0.03,6.25e-05,2.08e+06,–,0.279,–,–,–,–,~271000,119,82.6,"NLAG3-HDB169-S31 (antibody, human IgG1, V domains shown, Short label tied by its unique suffix) VH: QVQLVQSGAEVKKPGSSVKVSCKASGGTFSSYAISWVRQAPGQGLEWMGGIIPIFGTANYAQKFQGRVTITADESTSTAYMELSSLRSEDTAVYYCARDAGPVGYYGMDVWGQGTTVTVSS VL: AIRMTQSPSTLSASVGDRVTITCRASQGIAGWLAWYQQKPGKAPKLLIYAASSLQSGVPSRFSGSASGTDFTLTISNLQPEDFATYYCQQAKSFPLTFGGGTKVEIKR"
